From publication PMC9352680, “A comprehensive thermodynamic model for RNA binding by the Saccharomyces cerevisiae Pumilio protein PUF4”
Residue numbers refer to the chain shown, from its start. Names and notes keep the numbering of the source.

T1: PUF4 RNA-binding domain (Saccharomyces cerevisiae, UniProt P25339 537-888)
T1 sequence: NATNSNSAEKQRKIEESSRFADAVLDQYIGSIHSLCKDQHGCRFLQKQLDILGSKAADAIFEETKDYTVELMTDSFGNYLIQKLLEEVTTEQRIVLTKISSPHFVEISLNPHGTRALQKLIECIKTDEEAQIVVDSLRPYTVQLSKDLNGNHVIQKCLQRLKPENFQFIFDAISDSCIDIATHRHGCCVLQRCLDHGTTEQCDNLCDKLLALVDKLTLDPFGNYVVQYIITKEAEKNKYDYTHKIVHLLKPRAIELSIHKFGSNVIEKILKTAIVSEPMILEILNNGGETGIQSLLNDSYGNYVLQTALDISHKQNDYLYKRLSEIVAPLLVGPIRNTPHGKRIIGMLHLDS

B1: Ib_S2_P3E.1_K3.1_C3.1_H3.1_[A4G]_A3.1_F3.1_[T7A]_T3.1 (ssRNA)
RNA: UUUGAUUAAUAUGAUAUCGUUCUUUCUUGUGUAAAUUCUUUCUCGAUAUCAUAUUAAUCUUU
B2: Ib_S2_P3E.1_K3.1_C3.1_H3.1_[A4T]_A3.1_F3.1_[T7A]_T3.1 (ssRNA)
RNA: B1 RNA with G31U
B3: Ib_S2_P3E.1_K3.1_C3.1_H3.1_[T1G]_A3.1_F3.1_[A8G]_T3.1 (ssRNA)
RNA: B1 RNA with U28G, G31A, A34U, A35G
B4: Ia_S2_P3E.1_K3.1_C3.1_H3.1_[T1A]_A3.1_F3.1_T3.1 (ssRNA)
RNA: B1 RNA with U28A, G31A, A34U
B5: Ib_S2_P3E.1_K3.1_C3.1_H3.1_[T1C]_A3.1_F3.1_[A8G]_T3.1 (ssRNA)
RNA: B1 RNA with U28C, G31A, A34U, A35G

Molecular target: T1, PUF4 RNA-binding domain
Test: Mg; RNA-MaP; 20 mM Na-HEPES pH 7.4, 30 mM KOAc, 0.75 mM MgCl2, 0.1% Tween-20, 5% glycerol, 0.1 mg/mL BSA, 2 mM DTT; 25 C; 0.0125-409.6 nM protein
Settings: tags: N-His6-TEV cleaved; C-SNAP kept, Cy3B-labelled; label: tethered on chip by stalled RNA polymerase

Row | Binder | Kd [nM]
1 | UCUCUUUGUAUAUUAUCUCUCUU (ssRNA) [Ie_S1_P4E.1_K4.1_C4.1_H4.1_A4.1_F4.1_[+9TC]_T4.1] | 0.435
2 | UCUCUUUGUAUAUUAUUUCUCUU (ssRNA) [Ie_S1_P4E.1_K4.1_C4.1_H4.1_A4.1_F4.1_[+9TT]_T4.1] | 0.545
3 | UCUCUUUGUAUAUUACCCUCUCUU (ssRNA) [Ie_S1_P4E.1_K4.1_C4.1_H4.1_A4.1_F4.1_[+9CCC]_T4.1] | 1.11
4 | UCUCUUUGUAUAUUACCUUCUCUU (ssRNA) [Ie_S1_P4E.1_K4.1_C4.1_H4.1_A4.1_F4.1_[+9CCT]_T4.1] | 0.795
5 | UCUCUUUGUAUAUUACUCUCUCUU (ssRNA) [Ie_S1_P4E.1_K4.1_C4.1_H4.1_A4.1_F4.1_[+9CTC]_T4.1] | 1.09
6 | UCUCUUUGUAUAUUAUCCUCUCUU (ssRNA) [Ie_S1_P4E.1_K4.1_C4.1_H4.1_A4.1_F4.1_[+9TCC]_T4.1] | 0.48
7 | UCUCUUUGUAUAUUAUUCUCUCUU (ssRNA) [Ie_S1_P4E.1_K4.1_C4.1_H4.1_A4.1_F4.1_[+9TTC]_T4.1] | 0.488
8 | UCUCUUUGUAUAUUAUCUUCUCUU (ssRNA) [Ie_S1_P4E.1_K4.1_C4.1_H4.1_A4.1_F4.1_[+9TCT]_T4.1] | 0.632
9 | UCUCUUUGUAUAUUAUUUUCUCUU (ssRNA) [Ie_S1_P4E.1_K4.1_C4.1_H4.1_A4.1_F4.1_[+9TTT]_T4.1] | 0.453
10 | B1 | 35.3
11 | UCUCUUUGUAUAUUACUCUUCUCUU (ssRNA) [Ie_S1_P4E.1_K4.1_C4.1_H4.1_A4.1_F4.1_[+9CTCT]_T4.1] | 0.906
12 | UCUCUUUGUAUAUUAUCUCUCUCUU (ssRNA) [Ie_S1_P4E.1_K4.1_C4.1_H4.1_A4.1_F4.1_[+9TCTC]_T4.1] | 0.601
13 | UCUCUUUGUAUAUUACCUCUCUCUU (ssRNA) [Ie_S1_P4E.1_K4.1_C4.1_H4.1_A4.1_F4.1_[+9CCTC]_T4.1] | 0.706
14 | UCUCUUUGUAUAUUAUUCCUCUCUU (ssRNA) [Ie_S1_P4E.1_K4.1_C4.1_H4.1_A4.1_F4.1_[+9TTCC]_T4.1] | 0.476
15 | UCUCUUUGUAUAUUACUCUCUCUCUU (ssRNA) [Ie_S1_P4E.1_K4.1_C4.1_H4.1_A4.1_F4.1_[+9CTCTC]_T4.1] | 0.699
16 | UCUCUUUGUAUAUUAUCUCUUCUCUU (ssRNA) [Ie_S1_P4E.1_K4.1_C4.1_H4.1_A4.1_F4.1_[+9TCTCT]_T4.1] | 0.824
17 | UCUCUUUGUAUAUUACCUCUUCUCUU (ssRNA) [Ie_S1_P4E.1_K4.1_C4.1_H4.1_A4.1_F4.1_[+9CCTCT]_T4.1] | 1.58
18 | UCUCUUUGUAUAUUAUUCCUUCUCUU (ssRNA) [Ie_S1_P4E.1_K4.1_C4.1_H4.1_A4.1_F4.1_[+9TTCCT]_T4.1] | 0.347
19 | UCUCUUUGUAUAUUACCCUUUCUCUU (ssRNA) [Ie_S1_P4E.1_K4.1_C4.1_H4.1_A4.1_F4.1_[+9CCCTT]_T4.1] | 0.925
20 | UCUCUUUCGUAUUAUUAUCUCUU (ssRNA) [Ie_S1_P5E.1_K5.1_C5.1_H5.1_[+1C]_A5.1_F5.1_T5.1] | 1320
21 | B2 | 1590
22 | UCUCUUUUGUAUUAUUAUCUCUU (ssRNA) [Ie_S1_P5E.1_K5.1_C5.1_H5.1_[+1T]_A5.1_F5.1_T5.1] | 5.92
23 | UCUCUUUCUGUAUUAUUAUCUCUU (ssRNA) [Ie_S1_P5E.1_K5.1_C5.1_H5.1_[+1CT]_A5.1_F5.1_T5.1] | 3.96
24 | UCUCUUUUCGUAUUAUUAUCUCUU (ssRNA) [Ie_S1_P5E.1_K5.1_C5.1_H5.1_[+1TC]_A5.1_F5.1_T5.1] | 1240

Row | Binder | Kd [nM]
25 | UCUCUUUUUGUAUUAUUAUCUCUU (ssRNA) [Ie_S1_P5E.1_K5.1_C5.1_H5.1_[+1TT]_A5.1_F5.1_T5.1] | 7.17
26 | UCUCUUUCCCGUAUUAUUAUCUCUU (ssRNA) [Ie_S1_P5E.1_K5.1_C5.1_H5.1_[+1CCC]_A5.1_F5.1_T5.1] | 1340
27 | UCUCUUUCCUGUAUUAUUAUCUCUU (ssRNA) [Ie_S1_P5E.1_K5.1_C5.1_H5.1_[+1CCT]_A5.1_F5.1_T5.1] | 7.97
28 | UCUCUUUCUCGUAUUAUUAUCUCUU (ssRNA) [Ie_S1_P5E.1_K5.1_C5.1_H5.1_[+1CTC]_A5.1_F5.1_T5.1] | 1250
29 | UCUCUUUUUCGUAUUAUUAUCUCUU (ssRNA) [Ie_S1_P5E.1_K5.1_C5.1_H5.1_[+1TTC]_A5.1_F5.1_T5.1] | 1620
30 | UCUCUUUUCUGUAUUAUUAUCUCUU (ssRNA) [Ie_S1_P5E.1_K5.1_C5.1_H5.1_[+1TCT]_A5.1_F5.1_T5.1] | 4.9
31 | UCUCUUUCUUGUAUUAUUAUCUCUU (ssRNA) [Ie_S1_P5E.1_K5.1_C5.1_H5.1_[+1CTT]_A5.1_F5.1_T5.1] | 4.33
32 | B3 | 1140
33 | UCUCUUUUUUGUAUUAUUAUCUCUU (ssRNA) [Ie_S1_P5E.1_K5.1_C5.1_H5.1_[+1TTT]_A5.1_F5.1_T5.1] | 6.28
34 | UCUCUUUCUCUGUAUUAUUAUCUCUU (ssRNA) [Ie_S1_P5E.1_K5.1_C5.1_H5.1_[+1CTCT]_A5.1_F5.1_T5.1] | 7.73
35 | UCUCUUUUCUCGUAUUAUUAUCUCUU (ssRNA) [Ie_S1_P5E.1_K5.1_C5.1_H5.1_[+1TCTC]_A5.1_F5.1_T5.1] | 1230
36 | UCUCUUUCCUCGUAUUAUUAUCUCUU (ssRNA) [Ie_S1_P5E.1_K5.1_C5.1_H5.1_[+1CCTC]_A5.1_F5.1_T5.1] | 1350
37 | UCUCUUUUUCCGUAUUAUUAUCUCUU (ssRNA) [Ie_S1_P5E.1_K5.1_C5.1_H5.1_[+1TTCC]_A5.1_F5.1_T5.1] | > 2300
38 | UCUCUUUCCCUGUAUUAUUAUCUCUU (ssRNA) [Ie_S1_P5E.1_K5.1_C5.1_H5.1_[+1CCCT]_A5.1_F5.1_T5.1] | 5.88
39 | UCUCUUUCUCUCGUAUUAUUAUCUCUU (ssRNA) [Ie_S1_P5E.1_K5.1_C5.1_H5.1_[+1CTCTC]_A5.1_F5.1_T5.1] | 1240
40 | UCUCUUUUCUCUGUAUUAUUAUCUCUU (ssRNA) [Ie_S1_P5E.1_K5.1_C5.1_H5.1_[+1TCTCT]_A5.1_F5.1_T5.1] | 7.43
41 | UCUCUUUCCUCUGUAUUAUUAUCUCUU (ssRNA) [Ie_S1_P5E.1_K5.1_C5.1_H5.1_[+1CCTCT]_A5.1_F5.1_T5.1] | 4.35
42 | UCUCUUUCCCUUGUAUUAUUAUCUCUU (ssRNA) [Ie_S1_P5E.1_K5.1_C5.1_H5.1_[+1CCCTT]_A5.1_F5.1_T5.1] | 5.34
43 | B4 | 931
44 | B5 | > 2300
45 | UCUCUUUGUUAUUAUUAUCUCUU (ssRNA) [Ie_S1_P5E.1_K5.1_C5.1_H5.1_[+2T]_A5.1_F5.1_T5.1] | 64.9
46 | UCUCUUUGCUUAUUAUUAUCUCUU (ssRNA) [Ie_S1_P5E.1_K5.1_C5.1_H5.1_[+2CT]_A5.1_F5.1_T5.1] | 2090
47 | UCUCUUUGUCUAUUAUUAUCUCUU (ssRNA) [Ie_S1_P5E.1_K5.1_C5.1_H5.1_[+2TC]_A5.1_F5.1_T5.1] | 18.6
